The record followed here is article PMC4066749, “A sequence-based approach for prediction of CsrA/RsmA targets in bacteria with experimental validation in Pseudomonas aeruginosa”.

Series [1] has as its target T1, RsmA (UniProt O69078 1-61). The series is described as follows: analytical SEC; 50 uM protein, 25 uM RNA. Conditions: protein: recombinant; tags: His tag; chain copies: 2; unstructured.
Series [2] addresses T2, RsmA-R44A (UniProt O69078 1-61, R44A). Briefly: analytical SEC; no significant interaction, RNA largely unbound. Conditions: protein: recombinant; chain copies: 2; unstructured.
In series [3] the target is T1, RsmA. Briefly: ITC; 298 K; 1:1 single-site fit; 50 mM NaCl, 25 mM potassium phosphate pH 7.0; ITC at 298 K (125 uM RNA into 5-10 uM protein); SEC on Superdex 75 with 50 uM protein and 25 uM RNA, temperature not stated. Conditions: protein: recombinant; tags: His tag; chain copies: 2; hairpin.
Series [4] has as its target T2, RsmA-R44A. Briefly: analytical SEC; binding virtually eliminated; 50 uM protein, 25 uM RNA; 50 mM NaCl, 25 mM potassium phosphate pH 7.0; ITC at 298 K (125 uM RNA into 5-10 uM protein); SEC on Superdex 75 with 50 uM protein and 25 uM RNA, temperature not stated. Conditions: protein: recombinant; chain copies: 2; hairpin.

With GAAGAGGAGCUUUCAUG (ssRNA) [algU RBS RNA], the figures for the binding result with RsmA [1] and with RsmA-R44A [2] were “binds” and “no binding”, respectively.
In the case of CCCCGAAGGAUCGGGG (structured_RNA) [RsmZ-2 (RsmZ stem-loop 2)], the Kd with RsmA [3] was 276 ± 25 nM. In addition, the binding result with RsmA-R44A [4] is recorded as “no binding”.
